# T1: His-tagged SMAD4 WT (Mothers against decapentaplegic homolog 4) (UniProt Q13485 1-552)
# T1 sequence (looked up): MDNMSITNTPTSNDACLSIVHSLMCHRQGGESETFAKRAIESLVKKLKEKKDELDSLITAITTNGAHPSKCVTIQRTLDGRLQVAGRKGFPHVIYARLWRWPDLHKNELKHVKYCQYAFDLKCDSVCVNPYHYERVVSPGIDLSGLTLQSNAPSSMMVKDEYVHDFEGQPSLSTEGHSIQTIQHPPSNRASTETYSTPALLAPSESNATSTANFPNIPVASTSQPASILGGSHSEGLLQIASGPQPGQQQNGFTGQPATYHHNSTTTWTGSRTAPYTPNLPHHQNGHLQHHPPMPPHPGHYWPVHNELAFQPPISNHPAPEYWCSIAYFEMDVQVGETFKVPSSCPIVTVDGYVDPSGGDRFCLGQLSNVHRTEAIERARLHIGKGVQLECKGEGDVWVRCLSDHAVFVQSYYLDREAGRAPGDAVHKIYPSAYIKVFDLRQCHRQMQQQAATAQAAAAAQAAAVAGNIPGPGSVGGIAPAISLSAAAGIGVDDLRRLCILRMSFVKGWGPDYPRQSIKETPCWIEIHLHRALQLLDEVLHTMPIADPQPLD
# Target: T1, His-tagged SMAD4 WT (Mothers against …)
# Experiment: cell-based or functional assay
binder,measurement,value
"Flag-tagged SMAD3 WT (natural protein, UniProt P84022 1-425, looked up) MSSILPFTPPIVKRLLGWKKGEQNGQEEKWCEKAVKSLVKKLKKTGQLDELEKAITTQNVNTKCITIPRSLDGRLQVSHRKGLPHVIYCRLWRWPDLHSHHELRAMELCEFAFNMKKDEVCVNPYHYQRVETPVLPPVLVPRHTEIPAEFPPLDDYSHSIPENTNFPAGIEPQSNIPETPPPGYLSEDGETSDHQMNHSMDAGSPNLSPNPMSPAHNNLDLQPVTYCEPAFWCSISYYELNQRVGETFHASQPSMTVDGFTDPSNSERFCLGLLSNVNRNAAVELTRRHIGRGVRLYYIGGEVFAECLSDSAIFVQSPNCNQRYGWHPATVCKIPPGCNLKIFNNQEFAALLAQSVNQGFEAVYQLTRMCTIRMSFVKGWGAEYRRQTVTSTPCWIELHLNGPLQWLDKVLTQMGSPSIRCSSVS","SBE4-luciferase reporter activity upon TGFβ (10 ng/ml) stimulation, HEK293T cells with endogenous SMAD4 and SMAD3, fold-of-change",> 3 fold

# From PMC11063955, “A multiplexed time-resolved fluorescence resonance energy transfer ultrahigh-throughput screening assay for targeting the SMAD4–SMAD3–DNA complex” (Journal of Molecular Cell Biology, 2023)
